Reference: patent US20160235855A1, “STABLE AQUEOUS PARENTERAL PHARMACEUTICAL COMPOSITIONS OF INSULINOTROPIC PEPTIDES” (SHANGHAI BENEMAE PHARMACEUTICAL CORPORATION, priority 2013, published 2016)
“Also recorded” adds a separate entry of the source.

Assays:
[1] = WO00/37098, cited from earlier work
[2] = Long-term stability of GLP-1 formulations by HPLC; assay type: physicochemical
Procedure: The GLP-1 purity was determined by comparing the GLP-1 peak area with the total peak area.

[3] = Observation of appearance with the naked eye (physical stability); assay type: physicochemical
Excerpt: Each buffer was also designed to have 4 salt concentrations.
If there was evident precipitation or turbidity, no further determination would be carried out. If the samples had no abnormal phenomena observable with the naked eye, the samples were taken and subjected to determination of absorption values at 360 nm and HPLC detection, wherein the former investigated the physical stability, and the latter investigated the chemical stability.
The solutions were mixed uniformly, filtered through a 0.22 μm filter membrane, dispensed into 2 mL Penicillin bottles, and placed at different temperatures for investigation. A series of sampling time points were arranged. After sampling, the samples were firstly observed with the naked eye for appearance.
The solutions were adjusted to pH 3.5-4.0, mixed uniformly, filtered through a 0.22 μm filter membrane, dispensed into 2 mL Penicillin bottles, and placed at different temperatures for investigation. A series of sampling time points were arranged. The samples were firstly observed with the naked eye for appearance. If no evident turbidity or gelatination was occurred, the sample was considered as qualified as for physical stability, and then subjected to HPLC detection to analyze the chemical stability.

## Glucagon-like peptide 1 [GLP-1]
[1]; between pH 6.8 and 7.5
  physical stability: poor
[1]; pH value greater than 8.8
  chemical stability: reduced
[1]; pH value less than 8.0 after the addition of a preservative
  appearance of the formulation: turbid
[2]; 2 to 8° C., composition pH about 3.5 to 5.0
  storage duration: ≥ 2 years
[2]; 4° C., GLP-1 concentration up to 2 mg/ml, preservative added
  storage duration: 2 years
[3]; 20 mmol/L Na2HPO4-NaH2PO4 pH 7.0, NaCl 0 mmol/L
  Situations of samples after preparation: Clear and transparent
[3]; 20 mmol/L Na2HPO4-NaH2PO4 pH 7.0, NaCl 20 mmol/L
  Situations of samples after preparation: Clear and transparent
[3]; 20 mmol/L Na2HPO4-NaH2PO4 pH 7.0, NaCl 150 mmol/L
  Situations of samples after preparation: Clear and transparent
[3]; 20 mmol/L Na2HPO4-NaH2PO4 pH 7.0, NaCl 500 mmol/L
  Situations of samples after preparation: Clear and transparent
[3]; 20 mmol/L Na2HPO4-NaH2PO4 pH 7.5, NaCl 0 mmol/L
  Situations of samples after preparation: Clear and transparent
[3]; 20 mmol/L Na2HPO4-NaH2PO4 pH 7.5, NaCl 20 mmol/L
  Situations of samples after preparation: Clear and transparent
[3]; 20 mmol/L Na2HPO4-NaH2PO4 pH 7.5, NaCl 150 mmol/L
  Situations of samples after preparation: Clear and transparent
[3]; 20 mmol/L Na2HPO4-NaH2PO4 pH 7.5, NaCl 500 mmol/L
  Situations of samples after preparation: Clear and transparent
[3]; 20 mmol/L NaAC-HAC pH 3.0, NaCl 0 mmol/L
  Situations of samples after preparation: Clear and transparent
[3]; 20 mmol/L NaAC-HAC pH 3.0, NaCl 20 mmol/L
  Situations of samples after preparation: Clear and transparent
[3]; 20 mmol/L NaAC-HAC pH 3.0, NaCl 150 mmol/L
  Situations of samples after preparation: Clear and transparent
[3]; 20 mmol/L NaAC-HAC pH 3.0, NaCl 500 mmol/L
  Situations of samples after preparation: Clear and transparent
[3]; 20 mmol/L NaAC-HAC pH 3.5, NaCl 0 mmol/L
  Situations of samples after preparation: Clear and transparent
[3]; 20 mmol/L NaAC-HAC pH 3.5, NaCl 20 mmol/L
  Situations of samples after preparation: Clear and transparent
[3]; 20 mmol/L NaAC-HAC pH 3.5, NaCl 150 mmol/L
  Situations of samples after preparation: Clear and transparent
[3]; 20 mmol/L NaAC-HAC pH 3.5, NaCl 500 mmol/L
  Situations of samples after preparation: Turbid
[3]; 20 mmol/L NaAC-HAC pH 4.0, NaCl 0 mmol/L
  Situations of samples after preparation: Clear and transparent
[3]; 20 mmol/L NaAC-HAC pH 4.0, NaCl 20 mmol/L
  Situations of samples after preparation: Clear and transparent
[3]; 20 mmol/L NaAC-HAC pH 4.0, NaCl 150 mmol/L
  Situations of samples after preparation: Clear and transparent
[3]; 20 mmol/L NaAC-HAC pH 4.0, NaCl 500 mmol/L
  Situations of samples after preparation: Turbid
[3]; 20 mmol/L NaAC-HAC pH 4.5, NaCl 0 mmol/L
  Situations of samples after preparation: Difficult to filter
[3]; 20 mmol/L NaAC-HAC pH 4.5, NaCl 20 mmol/L
  Situations of samples after preparation: Difficult to filter
[3]; 20 mmol/L NaAC-HAC pH 4.5, NaCl 150 mmol/L
  Situations of samples after preparation: Difficult to filter
[3]; 20 mmol/L NaAC-HAC pH 4.5, NaCl 500 mmol/L
  Situations of samples after preparation: Difficult to filter,; also recorded: turbid
[3]; 20 mmol/L NaAC-HAC pH 5.0, NaCl 0, 20, 150, 500 mmol/L
  Situations of samples after preparation: Turbid or precipitated
[3]; 20 mmol/L citrate sodium-citric acid pH 5.5, NaCl 0, 20, 150, 500 mmol/L
  Situations of samples after preparation: Turbid or precipitated
[3]; 20 mmol/L citrate sodium-citric acid pH 6.0, NaCl 0 mmol/L
  Situations of samples after preparation: Precipitate sticking
[3]; 20 mmol/L citrate sodium-citric acid pH 6.0, NaCl 20 mmol/L
  Situations of samples after preparation: Precipitate sticking
[3]; 20 mmol/L citrate sodium-citric acid pH 6.0, NaCl 150 mmol/L
  Situations of samples after preparation: Precipitate sticking
[3]; 20 mmol/L citrate sodium-citric acid pH 6.0, NaCl 500 mmol/L
  Situations of samples after preparation: Precipitate sticking
[3]; 20 mmol/L citrate sodium-citric acid pH 6.5, NaCl 0 mmol/L
  Situations of samples after preparation: Turbid
[3]; 20 mmol/L citrate sodium-citric acid pH 6.5, NaCl 20 mmol/L
  Situations of samples after preparation: Turbid
[3]; 20 mmol/L citrate sodium-citric acid pH 6.5, NaCl 150 mmol/L
  Situations of samples after preparation: Turbid
[3]; 20 mmol/L citrate sodium-citric acid pH 6.5, NaCl 500 mmol/L
  Situations of samples after preparation: Turbid
[3]; pH 3.0
  Appearance of the sample: no turbidity or precipitation
[3]; pH 3.5 and pH 4.0, 0.5 M NaCl
  Appearance of the sample: turbidity
[3]; pH 4.0, NaCl 29.22 mg/mL
  Appearance of the sample (no determination carried out): Samples became turbid after formulation.
[3]; pH 4.5
  Appearance of the sample prepared: clear and transparent
[3]; pH 4.5, NaCl 29.22 mg/mL
  Appearance of the sample (no determination carried out): Samples became turbid after formulation.
[3]; pH 4.5, high salt concentration
  Appearance after formulation and heating treatment: turbidity
[3]; pH 5.0 to 6.5
  Appearance while the GLP-1 sample was prepared: turbidity or precipitation
[3]; pH 6.5, NaCl 0, 1.17, 8.77, 29.22 mg/mL
  Appearance of the sample (no determination carried out): Turbidity was generated after formulation and
[3]; pH value between about 4.5 and 6.5
  Appearance: turbidity or precipitation
